Source: paper doi:10.1101/2024.03.26.586525 (bioRxiv, 2024)
Where two headings read alike, the source gives them in different places.

Experiments:
cryo-EM structure [1] = target: the molecule itself; experiment: cryo-EM structure
cryo-EM structure [2] = target: the molecule itself; experiment: cryo-EM structure; remark: listed apart in the source

B1: aldehyde dehydrogenase 4 (Ald4) (enzyme, S. cerevisiae (endogenous in SK1 cells), UniProt P46367 25-519, looked up)
chain: SHLPMTVPIKLPNGLEYEQPTGLFINNKFVPSKQNKTFEVINPSTEEEICHIYEGREDDVEEAVQAADRAFSNGSWNGIDPIDRGKALYRLAELIEQDKDVIASIETLDNGKAISSSRGDVDLVINYLKSSAGFADKIDGRMIDTGRTHFSYTKRQPLGVCGQIIPWNFPLLMWAWKIAPALVTGNTVVLKTAESTPLSALYVSKYIPQAGIPPGVINIVSGFGKIVGEAITNHPKIKKVAFTGSTATGRHIYQSAAAGLKKVTLELGGKSPNIVFADAELKKAVQNIILGIYYNSGEVCCAGSRVYVEESIYDKFIEEFKAASESIKVGDPFDESTFQGAQTSQMQLNKILKYVDIGKNEGATLITGGERLGSKGYFIKPTVFGDVKEDMRIVKEEIFGPVVTVTKFKSADEVINMANDSEYGLAAGIHTSNINTALKVADRVNAGTVWINTYNDFHHAVPFGGFNASGLGREMSVDALQNYLQVKAVRAKLDE
stoichiometry N (cryo-EM structure [1]): 4

B2: acetyl-coenzyme A synthetase 1 (Acs1) (enzyme, S. cerevisiae (endogenous in SK1 cells), UniProt Q01574 1-713, looked up)
chain: MSPSAVQSSKLEEQSSEIDKLKAKMSQSAATAQQKKEHEYEHLTSVKIVPQRPISDRLQPAIATHYSPHLDGLQDYQRLHKESIEDPAKFFGSKATQFLNWSKPFDKVFIPDPKTGRPSFQNNAWFLNGQLNACYNCVDRHALKTPNKKAIIFEGDEPGQGYSITYKELLEEVCQVAQVLTYSMGVRKGDTVAVYMPMVPEAIITLLAISRIGAIHSVVFAGFSSNSLRDRINDGDSKVVITTDESNRGGKVIETKRIVDDALRETPGVRHVLVYRKTNNPSVAFHAPRDLDWATEKKKYKTYYPCTPVDSEDPLFLLYTSGSTGAPKGVQHSTAGYLLGALLTMRYTFDTHQEDVFFTAGDIGWITGHTYVVYGPLLYGCATLVFEGTPAYPNYSRYWDIIDEHKVTQFYVAPTALRLLKRAGDSYIENHSLKSLRCLGSVGEPIAAEVWEWYSEKIGKNEIPIVDTYWQTESGSHLVTPLAGGVTPMKPGSASFPFFGIDAVVLDPNTGEELNTSHAEGVLAVKAAWPSFARTIWKNHDRYLDTYLNPYPGYYFTGDGAAKDKDGYIWILGRVDDVVNVSGHRLSTAEIEAAIIEDPIVAECAVVGFNDDLTGQAVAAFVVLKNKSSWSTATDDELQDIKKHLVFTVRKDIGPFAAPKLIILVDDLPKTRSGKIMRRILRKILAGESDQLGDVSTLSNPGIVRHLIDSVKL
stoichiometry N (cryo-EM structure [2]): 3
